The text below walks through data of paper PMC8931381 (Proceedings of the National Academy of Sciences of the …, 2022).

Series [1] concerns the molecule itself. As to the kind of experiment: cryo-EM structure.
Series [2] deals with the molecule itself. As to the kind of experiment: cryo-EM structure. The source holds these as a separate data set.

One may read the stoichiometry N as the number of molecules, sites or subunits per partner or assembly.

Like-named read-outs stand apart in the source and are kept apart here.

B1: FliL of Borrelia burgdorferi (BbFliL) (natural protein, UniProt Q57442 1-178, looked up)
chain: MPNKDDDNLDMGDSNVSRKGGLLPDIIIKILQILAIGIFTVAIMIIVSYFVSKMVVSQSGAPSDFPVFSNEYLGKPPMLIWYESIDEIRGNTLDVPPKTFVVKLALGYAENNVNILNELGRQKVRLKDIIREYFSQRTGQEIKNESQIKAEIKARINSILRNGEIKEIALTQIDIFDM
For B1, the “stoichiometry N” value in “cryo-EM structure [1]” came to 4; in “cryo-EM structure [2]”, 10.
